Results: patent US20210079054A1 (published 2021)

T1: recombinant human IL-31 protein (UniProt Q6EBC2 24-164)
T1 chain: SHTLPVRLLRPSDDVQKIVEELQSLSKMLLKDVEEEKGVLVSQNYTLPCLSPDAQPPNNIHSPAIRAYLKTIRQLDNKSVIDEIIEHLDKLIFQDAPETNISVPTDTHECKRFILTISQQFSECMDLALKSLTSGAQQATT

B1: Cytopoint (anti-IL-31 mAb), monoclonal antibody to canine IL-31 (antibody, INN chains, looked up, V domains shown)
VH: EVQLVESGGDLVKPGGSLRLSCVASGFTFSNYGMSWVRQAPGKGLQWVATISYGGSYTYYPDNIKGRFTISRDNAKNTLYLQMNSLRAEDTAMYYCVRGYGYDTMDYWGQGTLVTVSS
VL: EIVMTQSPASLSLSQEEKVTITCKASQSVSFAGTGLMHWYQQKPGQAPKLLIYRASNLEAGVPSRFSGSGSGTDFSFTISSLEPEDVAVYYCQQSREYPWTFGQGTKLEIK
B2: SEQ ID NO: 99 (protein)
chain: ISITEIKGVIVHRIETILFKKKKAIRAYLKTIRQLDNKSVIDEIIEHLDKLIFQDAPETNISVPTDTHECKRFILTISQQFSESMDL
B3: SEQ ID NO: 87 (protein)
chain: ISITEIKGVIVHRIETILFKKKKLDNKSVIDEIIEHLDKLIFQDAPETNISVPTDTHECKRFILTISQQFS

Key:
[1] = target: recombinant canine IL-31 protein with C-terminal 6-His tag, secreted from Expi293 cells (canine); assay: cell-based or functional assay
[2] = target: T1, recombinant human IL-31 protein; assay: inhibition of IL-31/IL-31Rα interaction (ELISA); polyclonal IgG

Chain of recombinant canine IL-31 protein with C-terminal 6-His tag, secreted from Expi293 cells (canine) (chain, as listed by the source, form in doubt): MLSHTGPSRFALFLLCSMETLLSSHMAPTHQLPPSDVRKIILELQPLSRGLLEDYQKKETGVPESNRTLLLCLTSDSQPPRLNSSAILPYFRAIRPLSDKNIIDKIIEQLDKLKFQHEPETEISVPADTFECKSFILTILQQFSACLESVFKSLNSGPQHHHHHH

Binder	IC50 of signaling inhibition (canine IL-31 induced pSTAT in DH82 monocytes) [1] [µg/mL]	inhibition of IL-31-induced pSTAT3 signaling phosphorylation [1] [%]	IC50 [2] [µg/mL]
B1	3.21	50 to 75	
B2			1.23
B3			0.277
